Reference: article PMC9352680, “A comprehensive thermodynamic model for RNA binding by the Saccharomyces cerevisiae Pumilio protein PUF4”

T1: PUF4 RNA-binding domain (Saccharomyces cerevisiae, UniProt P25339 537-888)
T1 sequence: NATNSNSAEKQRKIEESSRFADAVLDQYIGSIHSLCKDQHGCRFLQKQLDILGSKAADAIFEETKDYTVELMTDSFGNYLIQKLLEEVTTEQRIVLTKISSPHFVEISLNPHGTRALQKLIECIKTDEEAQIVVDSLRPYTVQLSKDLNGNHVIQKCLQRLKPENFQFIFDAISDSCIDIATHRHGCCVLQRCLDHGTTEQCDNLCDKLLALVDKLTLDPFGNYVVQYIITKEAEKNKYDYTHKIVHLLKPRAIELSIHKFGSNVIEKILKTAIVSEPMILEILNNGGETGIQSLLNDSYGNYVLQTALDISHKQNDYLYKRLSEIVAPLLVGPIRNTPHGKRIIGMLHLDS


Target: T1, PUF4 RNA-binding domain
Experiment: Mg; RNA-MaP; 20 mM Na-HEPES pH 7.4, 30 mM KOAc, 0.75 mM MgCl2, 0.1% Tween-20, 5% glycerol, 0.1 mg/mL BSA, 2 mM DTT; 25 C; 0.0125-409.6 nM protein
Settings: tags: N-His6-TEV cleaved; C-SNAP kept, Cy3B-labelled; label: tethered on chip by stalled RNA polymerase

Row | Binder | Kd
1 | ACAAACUUUAUAUAUAUAACAAAC (ssRNA) [Id_ii_S3_P3E.3_K3.2_C3.2_[C-2T]_H3.2_A3.1_F3.1_T3.2] | 595 nM
2 | UCUCUUUGUAUUGUAAUCUCUU (ssRNA) [Ib_S1_P5E.1_K5.1_C5.1_H5.1_A5.1_[A7G]_F5.1_[T9A]_T5.1] | 10.6 nM
3 | ACAAACAAUAUAUAUACGACAAAC (ssRNA) [Id_ii_S3_P3E.3_K3.2_C3.2_[C-2A]_[T-1A]_H3.2_A3.1_F3.1_T3.2_[T9C]_[A10G]] | 1290 nM
4 | ACAAACUCUAUAUAUAACACAAAC (ssRNA) [Id_ii_S3_P3E.3_K3.2_C3.2_[C-2T]_[T-1C]_H3.2_A3.1_F3.1_T3.2_[T9A]_[A10C]] | 599 nM
5 | ACAAACUCUAUAUAUAAAACAAAC (ssRNA) [Id_ii_S3_P3E.3_K3.2_C3.2_[C-2T]_[T-1C]_H3.2_A3.1_F3.1_T3.2_[T9A]] | 932 nM
6 | ACAAACACUAUAUAUAUCACAAAC (ssRNA) [Id_ii_S3_P3E.3_K3.2_C3.2_[C-2A]_[T-1C]_H3.2_A3.1_F3.1_T3.2_[A10C]] | 541 nM
7 | ACAAACUUUAUAUAUAACACAAAC (ssRNA) [Id_ii_S3_P3E.3_K3.2_C3.2_[C-2T]_H3.2_A3.1_F3.1_T3.2_[T9A]_[A10C]] | 522 nM
8 | ACAAACACUAUAUAUACUACAAAC (ssRNA) [Id_ii_S3_P3E.3_K3.2_C3.2_[C-2A]_[T-1C]_H3.2_A3.1_F3.1_T3.2_[T9C]_[A10T]] | 43.8 nM
9 | ACAAACUCUAUAUAUACCACAAAC (ssRNA) [Id_ii_S3_P3E.3_K3.2_C3.2_[C-2T]_[T-1C]_H3.2_A3.1_F3.1_T3.2_[T9C]_[A10C]] | 771 nM
10 | ACAAACCGUAUAUAUAAAACAAAC (ssRNA) [Id_ii_S3_P3E.3_K3.2_C3.2_[T-1G]_H3.2_A3.1_F3.1_T3.2_[T9A]] | 697 nM
11 | ACAAACAUUAUAUAUAUCACAAAC (ssRNA) [Id_ii_S3_P3E.3_K3.2_C3.2_[C-2A]_H3.2_A3.1_F3.1_T3.2_[A10C]] | 450 nM
12 | ACAAACAAUAUAUAUAAGACAAAC (ssRNA) [Id_ii_S3_P3E.3_K3.2_C3.2_[C-2A]_[T-1A]_H3.2_A3.1_F3.1_T3.2_[T9A]_[A10G]] | 1090 nM
13 | ACAAACAUUAUAUAUAACACAAAC (ssRNA) [Id_ii_S3_P3E.3_K3.2_C3.2_[C-2A]_H3.2_A3.1_F3.1_T3.2_[T9A]_[A10C]] | 708 nM
14 | ACAAACGUUAUAUAUAAUACAAAC (ssRNA) [Id_ii_S3_P3E.3_K3.2_C3.2_[C-2G]_H3.2_A3.1_F3.1_T3.2_[T9A]_[A10T]] | 660 nM
15 | ACAAACACUAUAUAUACAACAAAC (ssRNA) [Id_ii_S3_P3E.3_K3.2_C3.2_[C-2A]_[T-1C]_H3.2_A3.1_F3.1_T3.2_[T9C]] | 735 nM
16 | ACAAACUUUAUAUAUACAACAAAC (ssRNA) [Id_ii_S3_P3E.3_K3.2_C3.2_[C-2T]_H3.2_A3.1_F3.1_T3.2_[T9C]] | 925 nM

Row | Binder | Kd
17 | ACAAACGAUAUAUAUAAUACAAAC (ssRNA) [Id_ii_S3_P3E.3_K3.2_C3.2_[C-2G]_[T-1A]_H3.2_A3.1_F3.1_T3.2_[T9A]_[A10T]] | 115 nM
18 | ACAAACGAUAUAUAUAGUACAAAC (ssRNA) [Id_ii_S3_P3E.3_K3.2_C3.2_[C-2G]_[T-1A]_H3.2_A3.1_F3.1_T3.2_[T9G]_[A10T]] | 62.3 nM
19 | ACAAACUCUAUAUAUAAUACAAAC (ssRNA) [Id_ii_S3_P3E.3_K3.2_C3.2_[C-2T]_[T-1C]_H3.2_A3.1_F3.1_T3.2_[T9A]_[A10T]] | 72 nM
20 | ACAAACAUUAUAUAUAUUACAAAC (ssRNA) [Id_ii_S3_P3E.3_K3.2_C3.2_[C-2A]_H3.2_A3.1_F3.1_T3.2_[A10T]] | 33.2 nM
21 | ACAAACCCUAUAUAUACUACAAAC (ssRNA) [Id_ii_S3_P3E.3_K3.2_C3.2_[T-1C]_H3.2_A3.1_F3.1_T3.2_[T9C]_[A10T]] | 45.5 nM
22 | UCUCUUUGUAUUCUCAUCUCUU (ssRNA) [Ib_S1_P5E.1_K5.1_C5.1_H5.1_A5.1_[A7C]_F5.1_[T9C]_T5.1] | 29.8 nM
23 | ACAAACGAUAUAUAUAAGACAAAC (ssRNA) [Id_ii_S3_P3E.3_K3.2_C3.2_[C-2G]_[T-1A]_H3.2_A3.1_F3.1_T3.2_[T9A]_[A10G]] | 786 nM
24 | UCUCUUUGUAGUAUUGUCUCUU (ssRNA) [Ic_S1_P5E.1_K5.1_C5.1_H5.1_A5.1_[T5G]_F5.1_[A10G]_T5.1] | 81.1 nM
25 | UCUCUUUGUAUUUUAAUCUCUU (ssRNA) [Ib_S1_P5E.1_K5.1_C5.1_H5.1_A5.1_[A7T]_F5.1_[T9A]_T5.1] | 3.42 nM
26 | UCUCUUUGUAUUUUCAUCUCUU (ssRNA) [Ic_S1_P5E.1_K5.1_C5.1_H5.1_A5.1_[A7T]_F5.1_[T9C]_T5.1] | 32.5 nM
27 | ACAAACAUUAUAUAUAAAACAAAC (ssRNA) [Id_ii_S3_P3E.3_K3.2_C3.2_[C-2A]_H3.2_A3.1_F3.1_T3.2_[T9A]] | 868 nM
28 | ACAAACCGUAUAUAUAGAACAAAC (ssRNA) [Id_ii_S3_P3E.3_K3.2_C3.2_[T-1G]_H3.2_A3.1_F3.1_T3.2_[T9G]] | 366 nM
29 | ACAAACAAUAUAUAUAUUACAAAC (ssRNA) [Id_ii_S3_P3E.3_K3.2_C3.2_[C-2A]_[T-1A]_H3.2_A3.1_F3.1_T3.2_[A10T]] | 94 nM
30 | ACAAACGUUAUAUAUAUUACAAAC (ssRNA) [Id_ii_S3_P3E.3_K3.2_C3.2_[C-2G]_H3.2_A3.1_F3.1_T3.2_[A10T]] | 154 nM
31 | ACAAACACUAUAUAUAUAACAAAC (ssRNA) [Id_ii_S3_P3E.3_K3.2_C3.2_[C-2A]_[T-1C]_H3.2_A3.1_F3.1_T3.2] | 873 nM
32 | ACAAACUCUAUAUAUAGCACAAAC (ssRNA) [Id_ii_S3_P3E.3_K3.2_C3.2_[C-2T]_[T-1C]_H3.2_A3.1_F3.1_T3.2_[T9G]_[A10C]] | 767 nM
